T1: FcγRIIb extracellular domain with C-terminal His tag (human, UniProt P31994 43-217)
T1 construct: extracellular domain; expressed in FreeStyle293 cells; analyte in the Biacore assay; also called FcgRIIb; 2b; not shown: His tag at the C terminus
T1 sequence (looked up): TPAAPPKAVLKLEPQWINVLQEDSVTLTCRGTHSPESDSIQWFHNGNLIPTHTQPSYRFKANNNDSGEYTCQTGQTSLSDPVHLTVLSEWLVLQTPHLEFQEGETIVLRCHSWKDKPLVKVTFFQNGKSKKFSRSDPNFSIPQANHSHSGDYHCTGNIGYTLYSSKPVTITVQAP


These binders were tested against T1, FcγRIIb extracellular domain with … (assay: SPR (Biacore), captured antibody, FcγRIIb analyte; binding relative to GpH7-B3/GpL16-k0 = 100).

Ho/Con_2b	Binder
181 % of control	GpH7-B3 variant I332_10E/GpL16-k0 (antibody, human IgG1, kappa, homodimerized; mutation in both H chains; also called Ho Ab I332_10E) heavy: not shown light: DIVMTQSPLSLPVTPGEPASISCQASESLVHSNRNTYLHWYLQKPGQSPQLLIYKVSNRFSGVPDRFSGSGSGTDFTLKISRVEAEDVGVYYCSQNTHVPPTFGQGTKVEIERTVAAPSVFIFPPSDEQLKSGTASVVCLLNNFYPREAKVQWKVDNALQSGNSQESVTEQDSKDSTYSLSSTLTLSKADYEKHKVYACEVTHQGLSSPVTKSFNRGEC
109 % of control	GpH7-B3 variant I332_15Y/GpL16-k0 (antibody, human IgG1, kappa, homodimerized; mutation in both H chains; also called Ho Ab I332_15Y) heavy: not shown light: DIVMTQSPLSLPVTPGEPASISCQASESLVHSNRNTYLHWYLQKPGQSPQLLIYKVSNRFSGVPDRFSGSGSGTDFTLKISRVEAEDVGVYYCSQNTHVPPTFGQGTKVEIERTVAAPSVFIFPPSDEQLKSGTASVVCLLNNFYPREAKVQWKVDNALQSGNSQESVTEQDSKDSTYSLSSTLTLSKADYEKHKVYACEVTHQGLSSPVTKSFNRGEC
160 % of control	GpH7-B3 variant K326_04F/GpL16-k0 (antibody, human IgG1, kappa, homodimerized; mutation in both H chains; also called Ho Ab K326_04F) heavy: not shown light: DIVMTQSPLSLPVTPGEPASISCQASESLVHSNRNTYLHWYLQKPGQSPQLLIYKVSNRFSGVPDRFSGSGSGTDFTLKISRVEAEDVGVYYCSQNTHVPPTFGQGTKVEIERTVAAPSVFIFPPSDEQLKSGTASVVCLLNNFYPREAKVQWKVDNALQSGNSQESVTEQDSKDSTYSLSSTLTLSKADYEKHKVYACEVTHQGLSSPVTKSFNRGEC
184 % of control	GpH7-B3 variant K326_03V/GpL16-k0 (antibody, human IgG1, kappa, homodimerized; mutation in both H chains; also called Ho Ab K326_03V) heavy: not shown light: DIVMTQSPLSLPVTPGEPASISCQASESLVHSNRNTYLHWYLQKPGQSPQLLIYKVSNRFSGVPDRFSGSGSGTDFTLKISRVEAEDVGVYYCSQNTHVPPTFGQGTKVEIERTVAAPSVFIFPPSDEQLKSGTASVVCLLNNFYPREAKVQWKVDNALQSGNSQESVTEQDSKDSTYSLSSTLTLSKADYEKHKVYACEVTHQGLSSPVTKSFNRGEC
168 % of control	GpH7-B3 variant K326_08L/GpL16-k0 (antibody, human IgG1, kappa, homodimerized; mutation in both H chains; also called Ho Ab K326_08L) heavy: not shown light: DIVMTQSPLSLPVTPGEPASISCQASESLVHSNRNTYLHWYLQKPGQSPQLLIYKVSNRFSGVPDRFSGSGSGTDFTLKISRVEAEDVGVYYCSQNTHVPPTFGQGTKVEIERTVAAPSVFIFPPSDEQLKSGTASVVCLLNNFYPREAKVQWKVDNALQSGNSQESVTEQDSKDSTYSLSSTLTLSKADYEKHKVYACEVTHQGLSSPVTKSFNRGEC
103 % of control	GpH7-B3 variant I336_08L/GpL16-k0 (antibody, human IgG1, kappa, homodimerized; mutation in both H chains; also called Ho Ab I336_08L) heavy: not shown light: DIVMTQSPLSLPVTPGEPASISCQASESLVHSNRNTYLHWYLQKPGQSPQLLIYKVSNRFSGVPDRFSGSGSGTDFTLKISRVEAEDVGVYYCSQNTHVPPTFGQGTKVEIERTVAAPSVFIFPPSDEQLKSGTASVVCLLNNFYPREAKVQWKVDNALQSGNSQESVTEQDSKDSTYSLSSTLTLSKADYEKHKVYACEVTHQGLSSPVTKSFNRGEC
193 % of control	GpH7-B3 variant K326_06M/GpL16-k0 (antibody, human IgG1, kappa, homodimerized; mutation in both H chains; also called Ho Ab K326_06M) heavy: not shown light: DIVMTQSPLSLPVTPGEPASISCQASESLVHSNRNTYLHWYLQKPGQSPQLLIYKVSNRFSGVPDRFSGSGSGTDFTLKISRVEAEDVGVYYCSQNTHVPPTFGQGTKVEIERTVAAPSVFIFPPSDEQLKSGTASVVCLLNNFYPREAKVQWKVDNALQSGNSQESVTEQDSKDSTYSLSSTLTLSKADYEKHKVYACEVTHQGLSSPVTKSFNRGEC
106 % of control	GpH7-B3 variant I332_14T/GpL16-k0 (antibody, human IgG1, kappa, homodimerized; mutation in both H chains; label printed T332_14T, read as I332_14T; also called Ho Ab I332_14T) heavy: not shown light: DIVMTQSPLSLPVTPGEPASISCQASESLVHSNRNTYLHWYLQKPGQSPQLLIYKVSNRFSGVPDRFSGSGSGTDFTLKISRVEAEDVGVYYCSQNTHVPPTFGQGTKVEIERTVAAPSVFIFPPSDEQLKSGTASVVCLLNNFYPREAKVQWKVDNALQSGNSQESVTEQDSKDSTYSLSSTLTLSKADYEKHKVYACEVTHQGLSSPVTKSFNRGEC

Continued, binder first:

Binder	Ho/Con_2b
GpH7-B3 variant A327_10E/GpL16-k0 (antibody, human IgG1, kappa, homodimerized; mutation in both H chains; also called Ho Ab A327_10E) heavy: not shown light: DIVMTQSPLSLPVTPGEPASISCQASESLVHSNRNTYLHWYLQKPGQSPQLLIYKVSNRFSGVPDRFSGSGSGTDFTLKISRVEAEDVGVYYCSQNTHVPPTFGQGTKVEIERTVAAPSVFIFPPSDEQLKSGTASVVCLLNNFYPREAKVQWKVDNALQSGNSQESVTEQDSKDSTYSLSSTLTLSKADYEKHKVYACEVTHQGLSSPVTKSFNRGEC	148 % of control
GpH7-B3 variant G236_09D/GpL16-k0 (antibody, human IgG1, kappa, homodimerized; mutation in both H chains; also called Ho Ab G236_09D) heavy: not shown light: DIVMTQSPLSLPVTPGEPASISCQASESLVHSNRNTYLHWYLQKPGQSPQLLIYKVSNRFSGVPDRFSGSGSGTDFTLKISRVEAEDVGVYYCSQNTHVPPTFGQGTKVEIERTVAAPSVFIFPPSDEQLKSGTASVVCLLNNFYPREAKVQWKVDNALQSGNSQESVTEQDSKDSTYSLSSTLTLSKADYEKHKVYACEVTHQGLSSPVTKSFNRGEC	207 % of control
GpH7-B3 variant H268_18N/GpL16-k0 (antibody, human IgG1, kappa, homodimerized; mutation in both H chains; also called Ho Ab H268_18N) heavy: not shown light: DIVMTQSPLSLPVTPGEPASISCQASESLVHSNRNTYLHWYLQKPGQSPQLLIYKVSNRFSGVPDRFSGSGSGTDFTLKISRVEAEDVGVYYCSQNTHVPPTFGQGTKVEIERTVAAPSVFIFPPSDEQLKSGTASVVCLLNNFYPREAKVQWKVDNALQSGNSQESVTEQDSKDSTYSLSSTLTLSKADYEKHKVYACEVTHQGLSSPVTKSFNRGEC	179 % of control
GpH7-B3 variant H268_13S/GpL16-k0 (antibody, human IgG1, kappa, homodimerized; mutation in both H chains; also called Ho Ab H268_13S) heavy: not shown light: DIVMTQSPLSLPVTPGEPASISCQASESLVHSNRNTYLHWYLQKPGQSPQLLIYKVSNRFSGVPDRFSGSGSGTDFTLKISRVEAEDVGVYYCSQNTHVPPTFGQGTKVEIERTVAAPSVFIFPPSDEQLKSGTASVVCLLNNFYPREAKVQWKVDNALQSGNSQESVTEQDSKDSTYSLSSTLTLSKADYEKHKVYACEVTHQGLSSPVTKSFNRGEC	186 % of control
GpH7-B3 variant I332_04F/GpL16-k0 (antibody, human IgG1, kappa, homodimerized; mutation in both H chains; also called Ho Ab I332_04F) heavy: not shown light: DIVMTQSPLSLPVTPGEPASISCQASESLVHSNRNTYLHWYLQKPGQSPQLLIYKVSNRFSGVPDRFSGSGSGTDFTLKISRVEAEDVGVYYCSQNTHVPPTFGQGTKVEIERTVAAPSVFIFPPSDEQLKSGTASVVCLLNNFYPREAKVQWKVDNALQSGNSQESVTEQDSKDSTYSLSSTLTLSKADYEKHKVYACEVTHQGLSSPVTKSFNRGEC	117 % of control
GpH7-B3 variant H268_01G/GpL16-k0 (antibody, human IgG1, kappa, homodimerized; mutation in both H chains; also called Ho Ab H268_01G) heavy: not shown light: DIVMTQSPLSLPVTPGEPASISCQASESLVHSNRNTYLHWYLQKPGQSPQLLIYKVSNRFSGVPDRFSGSGSGTDFTLKISRVEAEDVGVYYCSQNTHVPPTFGQGTKVEIERTVAAPSVFIFPPSDEQLKSGTASVVCLLNNFYPREAKVQWKVDNALQSGNSQESVTEQDSKDSTYSLSSTLTLSKADYEKHKVYACEVTHQGLSSPVTKSFNRGEC	158 % of control
GpH7-B3 variant G237_04F/GpL16-k0 (antibody, human IgG1, kappa, homodimerized; mutation in both H chains; also called Ho Ab G237_04F) heavy: not shown light: DIVMTQSPLSLPVTPGEPASISCQASESLVHSNRNTYLHWYLQKPGQSPQLLIYKVSNRFSGVPDRFSGSGSGTDFTLKISRVEAEDVGVYYCSQNTHVPPTFGQGTKVEIERTVAAPSVFIFPPSDEQLKSGTASVVCLLNNFYPREAKVQWKVDNALQSGNSQESVTEQDSKDSTYSLSSTLTLSKADYEKHKVYACEVTHQGLSSPVTKSFNRGEC	140 % of control
GpH7-B3 variant A330_01G/GpL16-k0 (antibody, human IgG1, kappa, homodimerized; mutation in both H chains; also called Ho Ab A330_01G) heavy: not shown light: DIVMTQSPLSLPVTPGEPASISCQASESLVHSNRNTYLHWYLQKPGQSPQLLIYKVSNRFSGVPDRFSGSGSGTDFTLKISRVEAEDVGVYYCSQNTHVPPTFGQGTKVEIERTVAAPSVFIFPPSDEQLKSGTASVVCLLNNFYPREAKVQWKVDNALQSGNSQESVTEQDSKDSTYSLSSTLTLSKADYEKHKVYACEVTHQGLSSPVTKSFNRGEC	102 % of control
GpH7-B3 variant I332_09D/GpL16-k0 (antibody, human IgG1, kappa, homodimerized; mutation in both H chains; also called Ho Ab I332_09D) heavy: not shown light: DIVMTQSPLSLPVTPGEPASISCQASESLVHSNRNTYLHWYLQKPGQSPQLLIYKVSNRFSGVPDRFSGSGSGTDFTLKISRVEAEDVGVYYCSQNTHVPPTFGQGTKVEIERTVAAPSVFIFPPSDEQLKSGTASVVCLLNNFYPREAKVQWKVDNALQSGNSQESVTEQDSKDSTYSLSSTLTLSKADYEKHKVYACEVTHQGLSSPVTKSFNRGEC	182 % of control
GpH7-B3 variant G236_10E/GpL16-k0 (antibody, human IgG1, kappa, homodimerized; mutation in both H chains; also called Ho Ab G236_10E) heavy: not shown light: DIVMTQSPLSLPVTPGEPASISCQASESLVHSNRNTYLHWYLQKPGQSPQLLIYKVSNRFSGVPDRFSGSGSGTDFTLKISRVEAEDVGVYYCSQNTHVPPTFGQGTKVEIERTVAAPSVFIFPPSDEQLKSGTASVVCLLNNFYPREAKVQWKVDNALQSGNSQESVTEQDSKDSTYSLSSTLTLSKADYEKHKVYACEVTHQGLSSPVTKSFNRGEC	114 % of control
GpH7-B3 variant I332_06M/GpL16-k0 (antibody, human IgG1, kappa, homodimerized; mutation in both H chains; also called Ho Ab I332_06M) heavy: not shown light: DIVMTQSPLSLPVTPGEPASISCQASESLVHSNRNTYLHWYLQKPGQSPQLLIYKVSNRFSGVPDRFSGSGSGTDFTLKISRVEAEDVGVYYCSQNTHVPPTFGQGTKVEIERTVAAPSVFIFPPSDEQLKSGTASVVCLLNNFYPREAKVQWKVDNALQSGNSQESVTEQDSKDSTYSLSSTLTLSKADYEKHKVYACEVTHQGLSSPVTKSFNRGEC	106 % of control
GpH7-B3 variant H268_09D/GpL16-k0 (antibody, human IgG1, kappa, homodimerized; mutation in both H chains; also called Ho Ab H268_09D) heavy: not shown light: DIVMTQSPLSLPVTPGEPASISCQASESLVHSNRNTYLHWYLQKPGQSPQLLIYKVSNRFSGVPDRFSGSGSGTDFTLKISRVEAEDVGVYYCSQNTHVPPTFGQGTKVEIERTVAAPSVFIFPPSDEQLKSGTASVVCLLNNFYPREAKVQWKVDNALQSGNSQESVTEQDSKDSTYSLSSTLTLSKADYEKHKVYACEVTHQGLSSPVTKSFNRGEC	298 % of control
GpH7-B3 variant H268_10E/GpL16-k0 (antibody, human IgG1, kappa, homodimerized; mutation in both H chains; also called Ho Ab H268_10E) heavy: not shown light: DIVMTQSPLSLPVTPGEPASISCQASESLVHSNRNTYLHWYLQKPGQSPQLLIYKVSNRFSGVPDRFSGSGSGTDFTLKISRVEAEDVGVYYCSQNTHVPPTFGQGTKVEIERTVAAPSVFIFPPSDEQLKSGTASVVCLLNNFYPREAKVQWKVDNALQSGNSQESVTEQDSKDSTYSLSSTLTLSKADYEKHKVYACEVTHQGLSSPVTKSFNRGEC	275 % of control
GpH7-B3 variant G237_20W/GpL16-k0 (antibody, human IgG1, kappa, homodimerized; mutation in both H chains; also called Ho Ab G237_20W) heavy: not shown light: DIVMTQSPLSLPVTPGEPASISCQASESLVHSNRNTYLHWYLQKPGQSPQLLIYKVSNRFSGVPDRFSGSGSGTDFTLKISRVEAEDVGVYYCSQNTHVPPTFGQGTKVEIERTVAAPSVFIFPPSDEQLKSGTASVVCLLNNFYPREAKVQWKVDNALQSGNSQESVTEQDSKDSTYSLSSTLTLSKADYEKHKVYACEVTHQGLSSPVTKSFNRGEC	166 % of control

Source: patent US20180155451A1 (published 2018)
